As a reminder, the Kd is the concentration at which binding is half-saturated. Higher therefore signals lower affinity.

The text below walks through data of article PMC12604781 (PLOS Pathogens, 2025).

For data set [1], the system named is pcGAS. Type of data set: biochemical, porcine. The note with it: pH 7.5.
Data set [2] has as its target SUMO-HSV-1 peptide AB (herpes simplex virus type 1 (HSV-1)). The data set can be described thus: ITC. For orientation: In ITC the heat of successive injections is recorded.
Another data set has as its target T1, pcGASNT (Sus scrofa? (porcine), UniProt I3LM39 1-134).
T1 sequence: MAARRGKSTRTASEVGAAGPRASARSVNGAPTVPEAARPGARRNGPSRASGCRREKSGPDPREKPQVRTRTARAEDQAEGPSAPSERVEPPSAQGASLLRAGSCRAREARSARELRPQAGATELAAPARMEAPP
The data set can be described thus: EMSA; no US1; EMSA: 2.5 uM ISD45, DNA:protein molar ratio 1:0 to 1:32, 0.8% agarose, 40 mM Tris-HCl pH 9.2 running buffer, 110 V, ethidium bromide; binding buffer and temperature not stated (protein stock 20 mM Tris-HCl pH 7.5, 150 mM NaCl, 5 mM DTT). The note with it: protein: recombinant; tags: Flag/HA double tag vector; His6-SUMO; blunt. Background: In EMSA bound probe runs differently from free probe, usually more slowly.

A further data set has as its target hcGAS (Homo sapiens? (human), UniProt Q8N884 1-522). The data set is described as above. The conditions noted are these: protein: recombinant; tags: N-terminal Flag, C-terminal HA; His6-SUMO removed; blunt.
The target in a further data set is mcGAS (Mus musculus? (mouse), UniProt Q8C6L5 1-507). The description is as above. The conditions noted are these: protein: recombinant; tags: N-terminal Flag, C-terminal HA; His6-SUMO removed; chain copies: 2; blunt.
A further data set has as its target T2, pcGASCT (Sus scrofa? (porcine), UniProt I3LM39 145-495).
T2 sequence: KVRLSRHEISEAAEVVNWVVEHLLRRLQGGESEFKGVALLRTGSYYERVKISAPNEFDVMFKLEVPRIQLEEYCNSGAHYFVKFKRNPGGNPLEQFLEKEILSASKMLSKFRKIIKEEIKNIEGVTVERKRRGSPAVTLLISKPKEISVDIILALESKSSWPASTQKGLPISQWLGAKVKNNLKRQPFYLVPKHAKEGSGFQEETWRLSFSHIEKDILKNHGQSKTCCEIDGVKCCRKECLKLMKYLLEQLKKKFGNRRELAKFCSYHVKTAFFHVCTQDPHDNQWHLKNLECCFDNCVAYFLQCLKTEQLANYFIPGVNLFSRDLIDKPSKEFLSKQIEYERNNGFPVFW
The data set is described as above. The conditions noted are these: protein: recombinant; tags: Flag/HA double tag vector; His6-SUMO; blunt.

The target in data set [3] is T3, pcGAS (Sus scrofa? (porcine), UniProt I3LM39 1-495).
T3 sequence: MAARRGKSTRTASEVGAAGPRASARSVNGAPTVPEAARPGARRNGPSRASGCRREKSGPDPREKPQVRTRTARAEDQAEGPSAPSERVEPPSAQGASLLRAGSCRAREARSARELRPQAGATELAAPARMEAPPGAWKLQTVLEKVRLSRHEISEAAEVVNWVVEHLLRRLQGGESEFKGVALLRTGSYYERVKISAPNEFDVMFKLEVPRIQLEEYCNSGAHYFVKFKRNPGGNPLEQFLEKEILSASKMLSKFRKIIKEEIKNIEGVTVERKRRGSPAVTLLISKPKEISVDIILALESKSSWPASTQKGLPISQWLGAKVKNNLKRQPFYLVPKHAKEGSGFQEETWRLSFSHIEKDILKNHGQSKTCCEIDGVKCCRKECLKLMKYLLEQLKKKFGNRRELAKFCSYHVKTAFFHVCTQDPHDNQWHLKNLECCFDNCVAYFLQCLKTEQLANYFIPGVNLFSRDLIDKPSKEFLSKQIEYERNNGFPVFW
Described as above. The note with it: protein: recombinant; tags: N-terminal Flag, C-terminal HA; His6-SUMO removed; blunt.

A further data set concerns the target T4, PRV US1 (pseudorabies virus, UniProt A0AAX7FDV8 1-364).
T4 sequence: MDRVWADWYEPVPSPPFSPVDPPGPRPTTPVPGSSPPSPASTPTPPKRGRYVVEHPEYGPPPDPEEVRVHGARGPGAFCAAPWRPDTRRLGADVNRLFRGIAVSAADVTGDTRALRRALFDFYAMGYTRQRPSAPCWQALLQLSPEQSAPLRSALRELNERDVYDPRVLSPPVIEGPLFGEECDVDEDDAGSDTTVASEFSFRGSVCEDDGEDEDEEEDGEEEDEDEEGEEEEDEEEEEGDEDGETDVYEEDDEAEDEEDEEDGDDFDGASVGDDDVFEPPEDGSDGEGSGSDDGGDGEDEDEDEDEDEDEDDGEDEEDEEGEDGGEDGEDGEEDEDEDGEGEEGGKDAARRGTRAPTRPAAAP
The data set can be described thus: EMSA; molar ratio 0-16; EMSA: 2.5 uM ISD45, DNA:protein molar ratio 1:0 to 1:32, 0.8% agarose, 40 mM Tris-HCl pH 9.2 running buffer, 110 V, ethidium bromide; binding buffer and temperature not stated (protein stock 20 mM Tris-HCl pH 7.5, 150 mM NaCl, 5 mM DTT). The conditions noted are these: protein: recombinant; tags: His6-SUMO removed; blunt.

hcGAS, sequence (Q8N884 whole entry): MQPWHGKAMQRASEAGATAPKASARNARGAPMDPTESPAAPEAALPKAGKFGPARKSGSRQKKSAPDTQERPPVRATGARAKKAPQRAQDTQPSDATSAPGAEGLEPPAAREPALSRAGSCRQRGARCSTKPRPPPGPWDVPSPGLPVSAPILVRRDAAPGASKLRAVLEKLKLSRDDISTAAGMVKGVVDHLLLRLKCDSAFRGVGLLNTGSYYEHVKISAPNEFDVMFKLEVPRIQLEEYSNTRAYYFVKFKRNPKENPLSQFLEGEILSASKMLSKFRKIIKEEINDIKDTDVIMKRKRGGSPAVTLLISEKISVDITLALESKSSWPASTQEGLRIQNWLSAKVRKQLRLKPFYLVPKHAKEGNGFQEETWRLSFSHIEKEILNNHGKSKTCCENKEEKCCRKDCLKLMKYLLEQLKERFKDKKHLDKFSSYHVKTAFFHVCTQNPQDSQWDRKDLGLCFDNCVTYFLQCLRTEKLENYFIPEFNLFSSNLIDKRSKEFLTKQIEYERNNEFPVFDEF
mcGAS, sequence (Q8C6L5 whole entry): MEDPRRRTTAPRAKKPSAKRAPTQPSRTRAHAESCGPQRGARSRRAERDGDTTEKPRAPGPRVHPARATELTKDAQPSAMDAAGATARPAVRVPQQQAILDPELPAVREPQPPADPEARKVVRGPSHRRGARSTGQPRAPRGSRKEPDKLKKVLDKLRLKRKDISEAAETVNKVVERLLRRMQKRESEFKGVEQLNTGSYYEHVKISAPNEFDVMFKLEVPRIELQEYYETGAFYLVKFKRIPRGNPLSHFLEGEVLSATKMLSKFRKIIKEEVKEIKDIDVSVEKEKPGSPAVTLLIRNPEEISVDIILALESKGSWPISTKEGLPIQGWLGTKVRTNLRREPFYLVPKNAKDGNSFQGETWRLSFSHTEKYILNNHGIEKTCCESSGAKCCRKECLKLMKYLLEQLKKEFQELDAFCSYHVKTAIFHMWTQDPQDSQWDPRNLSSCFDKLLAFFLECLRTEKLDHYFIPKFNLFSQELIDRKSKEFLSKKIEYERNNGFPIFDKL

In the case of AWKLQT [random peptide], the “effect on cGAS enzymatic activity / cGAMP synthesis” value in the data set on pcGAS [1] is “neither peptide A nor peptide B, nor the random peptide inhibited cGAMP synthesis”.

Regarding “pcGAS^CT (C-terminus, catalytic domain of porcine cGAS) (domain or fragment)”, the Kd in data set [2] came to 2.85 µM.

The molecule “hcGAS^CT (C-terminus, catalytic domain of human cGAS) (domain or fragment)” had a Kd in data set [2] of 15.7 µM.

B1: ISD45 (dsDNA)
DNA 1: TACAGATCTACTAGTGATCTATGACTGATCTGTACATGATCTACA
DNA 2: TGTAGATCATGTACAGATCAGTCATAGATCACTAGTAGATCTGTA
Consider B1, for which the binding result with pcGASNT was “binds”; with hcGAS, “binds”; with mcGAS it was “binds”; in the data set with pcGASCT, “binds”; in the data set with pcGAS [3] it was “binds”; with PRV US1, “no binding”.
